Measured values reported in article PMC11773018.
pKd: −log10 of the molar value.

What was measured:
[1] = target: human complement factor H (human) (UniProt P08603); test: SPR; human FH conjugated to a CM5 chip; untreated untagged CspZ flowed in PBS at 10 μl/min, 25 °C; Biacore T200; 1:1 Langmuir model
[2] = target: human complement factor H (human) (UniProt P08603); test: SPR; human FH conjugated to a CM5 chip; untagged CspZ treated with 100 μM EDTA and dialysed against PBS, flowed in EDTA-treated PBS (100 μM) at 10 μl/min, 25 °C; 1:1 Langmuir model
human factor H (human) [3] = target: human factor H (human) (UniProt P08603); test: SPR; human FH conjugated to a CM5 chip; untreated (PBS) untagged CspZ at one concentration (2 uM in methods and legend, 1 uM in the table's footnote) flowed in PBS at 10 ul/min, 25 C, Biacore T200, 1:1 Langmuir model
human factor H (human) [4] = target: human factor H (human) (UniProt P08603); test: SPR; human FH conjugated to a CM5 chip; untreated (PBS) untagged CspZ at one concentration (2 uM in methods and legend, 1 uM in the table's footnote) flowed in PBS at 30 ul/min, 25 C, Biacore T200, 1:1 Langmuir model
human factor H (human) [5] = target: human factor H (human) (UniProt P08603); test: SPR; human FH conjugated to a CM5 chip; untreated (PBS) untagged CspZ at one concentration (2 uM in methods and legend, 1 uM in the table's footnote) flowed in PBS at 100 ul/min, 25 C, Biacore T200, 1:1 Langmuir model
human factor H (human) [6] = target: human factor H (human) (UniProt P08603); test: SPR; human FH conjugated to a CM5 chip; untagged CspZ treated with 100 uM EDTA and dialysed against PBS, one concentration (2 uM in methods and legend, 1 uM in the table's footnote), flow rate 10 ul/min, 25 C, Biacore T200, 1:1 Langmuir model
human factor H (human) [7] = target: human factor H (human) (UniProt P08603); test: SPR; human FH conjugated to a CM5 chip; untagged CspZ treated with 100 uM EDTA and dialysed against PBS, one concentration (2 uM in methods and legend, 1 uM in the table's footnote), flow rate 30 ul/min, 25 C, Biacore T200, 1:1 Langmuir model
human factor H (human) [8] = target: human factor H (human) (UniProt P08603); test: SPR; human FH conjugated to a CM5 chip; untagged CspZ treated with 100 uM EDTA and dialysed against PBS, one concentration (2 uM in methods and legend, 1 uM in the table's footnote), flow rate 100 ul/min, 25 C, Biacore T200, 1:1 Langmuir model
[9] = target: human complement factor H (human) (UniProt P08603); test: SPR; human FH conjugated to a CM5 chip; EDTA-treated, PBS-dialysed untagged CspZ then incubated with 100 μM zinc, flowed in zinc-treated PBS (100 μM) at 10 μl/min, 25 °C; 1:1 Langmuir model
human factor H (human) [10] = target: human factor H (human) (UniProt P08603); test: SPR; human FH conjugated to a CM5 chip; EDTA-treated, PBS-dialysed untagged CspZB31 then treated with 100 uM zinc (EDTA-Zn), one concentration (2 uM in methods and legend, 1 uM in the table's footnote), flow rate 10 ul/min, 25 C, Biacore T200, 1:1 Langmuir model
human factor H (human) [11] = target: human factor H (human) (UniProt P08603); test: SPR; human FH conjugated to a CM5 chip; EDTA-treated, PBS-dialysed untagged CspZB31 then treated with 100 uM zinc (EDTA-Zn), one concentration (2 uM in methods and legend, 1 uM in the table's footnote), flow rate 30 ul/min, 25 C, Biacore T200, 1:1 Langmuir model
human factor H (human) [12] = target: human factor H (human) (UniProt P08603); test: SPR; human FH conjugated to a CM5 chip; EDTA-treated, PBS-dialysed untagged CspZB31 then treated with 100 uM zinc (EDTA-Zn), one concentration (2 uM in methods and legend, 1 uM in the table's footnote), flow rate 100 ul/min, 25 C, Biacore T200, 1:1 Langmuir model

| Substance | pKd [1] | koff [1] | kon [1] | pKd [2] | koff [2] | kon [2] | pKd (human factor H (human) [3]) | koff (human factor H (human) [3]) | kon (human factor H (human) [3]) | pKd (human factor H (human) [4]) | koff (human factor H (human) [4]) | kon (human factor H (human) [4]) | pKd (human factor H (human) [5]) | koff (human factor H (human) [5]) | kon (human factor H (human) [5]) | pKd (human factor H (human) [6]) | koff (human factor H (human) [6]) | kon (human factor H (human) [6]) | pKd (human factor H (human) [7]) | koff (human factor H (human) [7]) | also measured |
| --- | --- | --- | --- | --- | --- | --- | --- | --- | --- | --- | --- | --- | --- | --- | --- | --- | --- | --- | --- | --- | --- |
| CspZ from Borrelia afzelii VS461, untagged (natural protein) | 6.43 | 0.0034 s⁻¹ | 9420 M⁻¹ s⁻¹ | 6.33 | 0.0045 s⁻¹ | 10600 M⁻¹ s⁻¹ | 6.43 | 0.004 s⁻¹ | 10800 M⁻¹ s⁻¹ | 6.42 | 0.004 s⁻¹ | 10800 M⁻¹ s⁻¹ | 6.47 | 0.003 s⁻¹ | 10500 M⁻¹ s⁻¹ | 6.32 | 0.004 s⁻¹ | 10700 M⁻¹ s⁻¹ | 6.37 | 0.003 s⁻¹ | kon (human factor H (human) [7]): 9160 M⁻¹ s⁻¹; pKd (human factor H (human) [8]): 6.96; koff (human factor H (human) [8]): 0.004 s⁻¹; kon (human factor H (human) [8]): 11100 M⁻¹ s⁻¹ |
| CspZ from Borrelia burgdorferi B31, untagged (natural protein) | 6.47 | 0.021 s⁻¹ | 66600 M⁻¹ s⁻¹ | 5.52 | 0.012 s⁻¹ | 4370 M⁻¹ s⁻¹ | 6.64 | 0.016 s⁻¹ | 68800 M⁻¹ s⁻¹ | 6.57 | 0.017 s⁻¹ | 63200 M⁻¹ s⁻¹ | 6.60 | 0.017 s⁻¹ | 69200 M⁻¹ s⁻¹ | 5.47 | 0.012 s⁻¹ | 4560 M⁻¹ s⁻¹ | 5.43 | 0.021 s⁻¹ | pKd [9]: 6.17; koff [9]: 0.035 s⁻¹; kon [9]: 51200 M⁻¹ s⁻¹; kon (human factor H (human) [7]): 5790 M⁻¹ s⁻¹; pKd (human factor H (human) [8]): 5.44; koff (human factor H (human) [8]): 0.017 s⁻¹; kon (human factor H (human) [8]): 4830 M⁻¹ s⁻¹; pKd (human factor H (human) [10]): 6.21; koff (human factor H (human) [10]): 0.037 s⁻¹; kon (human factor H (human) [10]): 60900 M⁻¹ s⁻¹; pKd (human factor H (human) [11]): 6.24; koff (human factor H (human) [11]): 0.034 s⁻¹; kon (human factor H (human) [11]): 61700 M⁻¹ s⁻¹; pKd (human factor H (human) [12]): 6.18; koff (human factor H (human) [12]): 0.044 s⁻¹; kon (human factor H (human) [12]): 66600 M⁻¹ s⁻¹ |
| CspZ from Borrelia burgdorferi B408, untagged (natural protein) | 6.27 | 0.0079 s⁻¹ | 14100 M⁻¹ s⁻¹ | 6.31 | 0.0071 s⁻¹ | 13900 M⁻¹ s⁻¹ | 6.26 | 0.008 s⁻¹ | 16500 M⁻¹ s⁻¹ | 6.28 | 0.007 s⁻¹ | 13600 M⁻¹ s⁻¹ | 6.27 | 0.006 s⁻¹ | 13200 M⁻¹ s⁻¹ | 6.32 | 0.007 s⁻¹ | 15700 M⁻¹ s⁻¹ | 6.32 | 0.006 s⁻¹ | kon (human factor H (human) [7]): 13600 M⁻¹ s⁻¹; pKd (human factor H (human) [8]): 6.30; koff (human factor H (human) [8]): 0.008 s⁻¹; kon (human factor H (human) [8]): 16700 M⁻¹ s⁻¹ |
